Our source for the percent of H chains crosslinked to p88 values is PMC2119236.

Assay [1] has as its target H-2Db class I H chain, beta2m-free, in R1E-Db cells (mouse). Briefly: cross-linking.
The target in assay [2] is H-2Kb class I H chain, beta2m-free, in R1E-Kb cells (mouse). Kind of assay: cross-linking.
H-2Kb class I H chain, beta2m-free, in R1E-Kb cells (mouse), sequence (P01901 22-369): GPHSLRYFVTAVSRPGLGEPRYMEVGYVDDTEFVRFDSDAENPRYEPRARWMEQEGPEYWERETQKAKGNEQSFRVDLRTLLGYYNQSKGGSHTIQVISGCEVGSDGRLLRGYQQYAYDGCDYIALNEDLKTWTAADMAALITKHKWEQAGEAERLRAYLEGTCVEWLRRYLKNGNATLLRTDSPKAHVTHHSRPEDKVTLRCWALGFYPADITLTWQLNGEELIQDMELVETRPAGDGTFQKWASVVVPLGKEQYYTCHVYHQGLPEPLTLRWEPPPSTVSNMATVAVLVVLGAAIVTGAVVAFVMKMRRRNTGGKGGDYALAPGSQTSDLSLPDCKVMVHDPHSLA

H-2Db class I H chain, beta2m-free, in R1E-Db cells (mouse), sequence (P01899 25-362): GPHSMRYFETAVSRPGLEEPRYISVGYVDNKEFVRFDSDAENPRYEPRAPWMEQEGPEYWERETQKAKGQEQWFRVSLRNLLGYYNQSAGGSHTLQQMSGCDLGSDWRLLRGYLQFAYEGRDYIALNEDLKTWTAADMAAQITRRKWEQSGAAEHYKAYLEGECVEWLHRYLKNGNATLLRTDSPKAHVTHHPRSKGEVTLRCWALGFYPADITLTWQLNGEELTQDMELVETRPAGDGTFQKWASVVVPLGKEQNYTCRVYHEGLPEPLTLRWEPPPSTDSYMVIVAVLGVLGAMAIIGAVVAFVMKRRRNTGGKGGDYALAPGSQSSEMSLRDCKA

B1: p88 (88-kD protein), murine (natural protein)
chain: HDGHDDDAIDIEDDLDDVIEEVEDSKSKSDASTPPSPKVTYKAPVPTGEVYFADSFDRGSLSGWILSKAKKDDTDDEIAKYDGKWEVDEMKETKLPGDKGLVLMSRAKHHAISAKLNKPFLFDTKPLIVQYEVNFQNGIECGGAYVKLLSKTAELSLDQFHDKTPYTIMFGPDKCGEDYKLHFIFRHKNPKTGVYEEKHAKRPDADLKTYFTDKKTHLYTLILNPDNSFEILVDQSVVNSGNLLNDMTPPVNPSREIEDPEDRKPEDWDERPKIADPDAVKPDDWDEDAPSKIPDEEATKPEGWLDDEPEYIPDPDAEKPEDWDEDMDGEWEAPQIANPKCESAPGCGVWQRPMIDNPNYKGKWKPPMIDNPNYQGIWKPRKIPNPDFFEDLEPFKMTPFSAIGLELWSMTSDIFFDNFIISGDRRVVDDWANDGWGLKKAADGAAEPGVVLQMLEAAEERPWLWVVYILTVALPVFLVILFCCSGKKQSNAMEYKKTDAPQPDVKDEEGKEEEKNKRDEEEEEEKLEEKQKSDAEEDGVTGSQDEEDSKPKAEEDEILNRSPRNRKPRRE
Regarding B1, the percent of H chains crosslinked to p88 in assay [1] was found to be 25%; in assay [2] it was 50%.
